The text below walks through data of patent publication US6458354B1, “Molecular complexes which modify immune responses” (The Johns Hopkins University, priority 1996, dated 2002).

“And” between values parts separate entries of the source, which are not always exact repeats. Identical values can stand only once. Where no end group is shown, it is not given here.

The target in experiment [1] is p2Ca-loaded H-2 L^d (mouse) (UniProt P01897). Put plainly: cell-based or functional assay.
Experiment [2] has as its target dEV-8-loaded H-2 K^bm3 (mouse). Put plainly: cell-based or functional assay.
Experiment [3] addresses SIY-loaded H-2 K^b (mouse) (UniProt P01901). Put plainly: cell-based or functional assay.
In experiment [4] the target is SIY-loaded H-2 K^bm3 (mouse). Put plainly: cell-based or functional assay.
For another experiment, the target named is 2C TCR. The following applies: read-out: Kd (μM) of 2C TCR for peptide/MHC complex; MHC restriction H-2 Ld; monovalent 2C TCR; cited from earlier work.
The subject of experiment [5] is 2C CTL, T2 K^b target cells. It is filed as cell-based. Here is the method:
(§1) FIGS. 12(A-C). 2C CTL mediated lysis on various peptide/MHC targets. […] Peptide-loaded target cells were then incubated at an effector to target ratio of 10:1 and specific lysis calculated as described below. Data shown are representative of three separate experiments.
(§2) CTL Assays. Splenocytes from 2C TCR transgenic mice (Sha et al. Nature 336:73-76, 1988) were resuspended at 1.25×10^6 per ml and stimulated with 1.75×10^6 BALB/c splenocytes that had been exposed to 3,000 cGy radiation. On day 7, the 2C T cell-enriched cultures were restimulated at 5×10^5 per ml with 2.5×10^6 per ml BALB/c splenocytes. Experiments were performed on this and subsequent stimulationUs on day 4. All subsequent stimulation was performed with 3.75×10^5 per ml 2C splenocytes and 2.5×10^6 per ml BALB/c cells in the presence of IL-2 (5 units/ml).
(§3) Assays were performed in triplicate according to established CTL protocols. Briefly, target cells (2-4×10^6) were incubated with […] ^51[Cr] at 37° C. for 1 h. After three washes, cells were added to V-bottom 96 well plates (3×10^3/100 μl) and incubated (25° C. for 1.5 hour) with peptides at the indicated concentrations. 2C T cells (3×10^4/100 μl) were added to targets and plates were incubated at 37° C. for 4.5 hour. Maximum release was achieved by incubating targets with 5% Triton X 100. Percent specific lysis was calculated from raw data using [(experimental release—spontaneous release )/(maximum release—spontaneous release)]×100.

Experiment [6] concerns 2C CTL, T2 K^bm3 target cells. It is filed as cell-based. Here is the method: as §1, §2, §3
The test system of experiment [7] is 2C CTL, T2 K^bm11 target cells. Put plainly: 2C CTL mediated lysis of peptide-loaded T2 K^bm11 targets. The format is cell-based, mice. Particulars: data not shown. Here is the method: as §2, §3
A further experiment concerns RENCA cells. Put plainly: Effect of γ-IFN on endogenous peptide/H-2 L^d complexes of RENCA cells, FACS with 2C TCR/Ig or mAb 30.5.7. The format is cell-based, murine. Particulars: for effect of prior incubation of RENCA cells with peptide on 2C TCR/Ig binding: saturating peptide. Here is the method: FIGS. 13(A-H). Fluorescence data showing modulation of endogenous 2C specific peptide/H-2 L^d complexes on the surface of RENCA cells by γ-IFN. RENCA cells were cultured for 48 hours with 0 (FIGS. 13A and 13E), 5 (FIGS. 13B and 13F), 10 (FIGS. 13C and 13G), or 50 (FIGS. 13D and 13H) units/ml γ-IFN. […] This was accomplished by incubating RENCA cells with saturating amounts of the H-2 L^d binding peptide, MCMV, which efficiently displaced the endogenous H-2 L^d bound peptides, including any 2C-reactive peptides. […] Cells were subsequently stained with GAM-IgG-RPE and analyzed by FACS. Resultant histograms are shown. Solid lines represent histograms of cultures with no added peptide while dotted lines represent histograms from cultures incubated with pMCMV. All experiments were done in duplicate and repeated at least three times. Note the differences in the extent of fluorescence (see the scales on the histograms) upon staining with 2C-TCR/Ig vs. staining with 30.5.7.
Peptide Loading of Cells. RMA-S and T2 cell lines are defective in antigen processing and express functionally “empty” class I MHC on their cell surface. These “empty” MHC molecules can be loaded with peptides using the following protocol (25). Cells (RMA-S, RMA-S L^d, T2, T2 L^d, T2 Kb, T2 Kbm3 or T2 K^bm11) are cultured at 27° C. overnight. The following morning, cells are cultured in the presence of various antigenic peptides (100 μM final concentration) or in the absence of peptides for an additional 1.5 hours at 27° C. and then incubated for one hour at 37° C. RENCA cells were loaded with peptides by incubation with peptides (100 μM final concentration) for >2 hour at 37° C. Cells were then harvested and processed for FACS analysis as described.
To analyze this possibility and to follow the expression of endogenous 2C-reactive peptide/H-2 L^d complexes within a heterogeneous peptide/MHC environment, the influence of γ-IFN on the H-2 L^d -expressing murine cell line RENCA was studied.
RENCA cells were cultured in the presence of variable amounts of γ-IFN to induce up-regulation of naturally loaded peptide/MHC complexes. […] The effect of γ-IFN was dose dependent with a maximal 2-3 fold increase seen on cells treated with 10 units/ml of γ-IFN.

For experiment [8], the target named is SL9-loaded H-2 L^d (mouse) (UniProt P01897). Put plainly: direct flow cytometry on peptide-loaded RMA-S L^d cells. In general terms: A flow cytometer gives signals particle by particle.
Sequence of SL9-loaded H-2 L^d (mouse) (P01897 25-309): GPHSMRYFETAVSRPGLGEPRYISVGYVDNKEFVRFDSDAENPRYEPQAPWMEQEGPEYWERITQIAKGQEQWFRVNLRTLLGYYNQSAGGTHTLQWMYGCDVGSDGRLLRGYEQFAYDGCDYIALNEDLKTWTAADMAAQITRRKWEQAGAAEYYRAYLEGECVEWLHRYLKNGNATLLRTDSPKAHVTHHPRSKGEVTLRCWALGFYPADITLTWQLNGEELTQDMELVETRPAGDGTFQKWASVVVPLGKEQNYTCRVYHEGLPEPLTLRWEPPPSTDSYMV
For experiment [9], the target named is pVSV-loaded H-2 K^bm3 (mouse). Put plainly: flow cytometry on peptide-loaded T2 K^bm3 cells.
Experiment [10] deals with SIY-loaded H-2 K^bm3 (mouse). Put plainly: flow cytometry on peptide-loaded T2 K^bm3 cells.
For experiment [11], the target named is QL9-loaded H-2 L^d (mouse) (UniProt P01897). Put plainly: direct flow cytometry on peptide-loaded L^d cells.
Sequence of QL9-loaded H-2 L^d (mouse) (P01897 25-362): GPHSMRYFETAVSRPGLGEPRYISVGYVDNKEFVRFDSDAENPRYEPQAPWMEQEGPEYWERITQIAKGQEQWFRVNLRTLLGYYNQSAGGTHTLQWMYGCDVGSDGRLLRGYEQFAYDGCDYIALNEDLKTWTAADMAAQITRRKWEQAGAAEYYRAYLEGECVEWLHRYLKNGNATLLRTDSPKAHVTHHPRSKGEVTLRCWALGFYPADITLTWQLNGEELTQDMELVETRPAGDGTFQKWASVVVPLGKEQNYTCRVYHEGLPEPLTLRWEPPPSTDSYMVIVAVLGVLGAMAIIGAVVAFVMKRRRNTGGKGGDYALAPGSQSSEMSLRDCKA
Experiment [12] has as its target pVSV-loaded H-2 K^b (mouse) (UniProt P01901). Put plainly: flow cytometry on peptide-loaded T2 K^b cells.
Experiment [13] addresses SIY-loaded H-2 K^b (mouse) (UniProt P01901). Put plainly: flow cytometry on peptide-loaded T2 K^b cells.
For experiment [14], the target named is p2Ca-loaded H-2 L^d (mouse) (UniProt P01897). Put plainly: flow cytometry, serial dilutions on peptide-loaded RMA-S L^d cells, H57-FITC detection.
For experiment [15], the target named is QL9-loaded H-2 L^d (mouse) (UniProt P01897). The experiment is described as above.
Experiment [16] deals with serologically reactive H-2 L^d on RENCA cells (murine) (UniProt P01897). Put plainly: flow cytometry on unstimulated RENCA cells.
Sequence of serologically reactive H-2 L^d on RENCA cells (murine) (P01897 25-362): as above
Experiment [17] shares this target. Put plainly: flow cytometry on RENCA cells stimulated with 5-50 units/ml γ-IFN.

Sequence of soluble divalent 2C TCR/Ig (A2KF29 whole entry, looked up, tested part not stated): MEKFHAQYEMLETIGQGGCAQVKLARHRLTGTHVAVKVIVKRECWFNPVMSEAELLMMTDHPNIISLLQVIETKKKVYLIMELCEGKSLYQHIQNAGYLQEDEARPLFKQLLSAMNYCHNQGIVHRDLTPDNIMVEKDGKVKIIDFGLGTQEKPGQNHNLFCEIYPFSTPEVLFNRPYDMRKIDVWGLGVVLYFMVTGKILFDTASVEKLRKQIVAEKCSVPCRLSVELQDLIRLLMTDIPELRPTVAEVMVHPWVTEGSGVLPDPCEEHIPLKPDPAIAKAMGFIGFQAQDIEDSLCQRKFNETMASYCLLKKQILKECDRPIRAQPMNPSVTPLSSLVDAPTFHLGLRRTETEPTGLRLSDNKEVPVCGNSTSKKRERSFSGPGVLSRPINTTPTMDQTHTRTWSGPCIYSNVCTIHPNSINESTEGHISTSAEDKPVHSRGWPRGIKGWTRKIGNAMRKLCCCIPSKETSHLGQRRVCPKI
Sequence of 2C TCR on 2C CTL (A2KF29 whole entry): as the sequence (A2KF29 whole entry, looked up, tested part not stated) above
Sequence of SIY-loaded H-2 K^b (mouse) (P01901 22-369): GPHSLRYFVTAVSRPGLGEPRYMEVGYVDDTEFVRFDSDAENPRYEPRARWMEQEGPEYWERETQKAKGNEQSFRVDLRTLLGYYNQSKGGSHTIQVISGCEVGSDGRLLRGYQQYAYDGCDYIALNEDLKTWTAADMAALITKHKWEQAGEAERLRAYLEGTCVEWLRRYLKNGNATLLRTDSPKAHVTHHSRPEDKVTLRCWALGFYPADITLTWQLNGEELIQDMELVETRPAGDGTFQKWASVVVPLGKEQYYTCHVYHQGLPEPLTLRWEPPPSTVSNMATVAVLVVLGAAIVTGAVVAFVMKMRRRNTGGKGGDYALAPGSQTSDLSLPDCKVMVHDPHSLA
Sequence of p2Ca-loaded H-2 L^d (mouse) (P01897 25-362): as the sequence (P01897 25-362) above
Sequence of pVSV-loaded H-2 K^b (mouse) (P01901 22-369): as the sequence (P01901 22-369) above

In the case of 2C TCR on 2C CTL (from UniProt A2KF29), in experiment [1], the LD50 of peptide for 2C CTL mediated lysis of p2Ca-loaded T2 L^d cells turned out to be 0.5 ng/mL. Further, the LD50 of peptide for 2C CTL mediated lysis in [2] is 0.5 ng/mL and 1 ng/mL; in experiment [3], 10 ng/mL; in [4], 100 ng/mL.

LSPFPFDLL [SL9]: the Kd on 2C TCR is 71 µM.

Consider LSPFPFDL [p2Ca], for which the Kd at 2C TCR is 0.1 to 0.5 µM.

For the substance SIYRYYGL [SIY], the results for the “2C CTL mediated lysis of peptide loaded targets” value in experiment [5], in [6] and in experiment [7] were “efficient lysis”, “significantly less efficient” and “efficient lysis”, respectively. The “LD50 of peptide for 2C CTL mediated lysis” value in experiment [6] (T2 K^bm3 targets, effector to target ratio 10:1) is about 100 ng/mL.

With “γ-IFN: lymphokine used to up-regulate naturally loaded peptide/MHC complexes on RENCA cells”, in the experiment with RENCA cells (5-50 units/ml γ-IFN, 48 hours), the “increase in serologically reactive H-2 L^d recognized by mAb 30.5.7” value is reported as 5-6 fold. Besides, the “maximal increase of 2C TCR/Ig binding to RENCA cells” value with RENCA cells (10 units/ml γ-IFN, 48 hours) is on record as 2-3 fold.

Turning to “soluble divalent 2C TCR/Ig (from UniProt A2KF29)”, the mean channel fluorescence (MCF) in [8] came out at 100; in [9], 12; in experiment [10], 36; in [11], 3000; in [12], 14; in experiment [13], 276. Also, in [14], the concentration required to detect binding is 3 nM. The substance further gave a lowest concentration tested, at which binding was detected in experiment [15] of 1 nM.

On to EQYKFYSV [dEV-8], for which the “2C CTL mediated lysis of peptide loaded targets” value in experiment [5] is “neither lysed”; in [6] it was “efficiently lysed”; in experiment [7], “relatively poor targets”.

As for YPHFMPTNL [pMCMV], the “effect of prior incubation of RENCA cells with peptide on 2C TCR/Ig binding” value with RENCA cells was “blocked”.

For QLSPFPFDL [QL9], the “effect of prior incubation of RENCA cells with peptide on 2C TCR/Ig binding” value with RENCA cells is “dramatic increase”. For the same substance, the Kd at 2C TCR is 0.066 µM.

As for mAb 30.5.7 (antibody), the mean channel fluorescence (MCF) in [16] was 500; in experiment [17] it was 2670 to 3040.
